From publication PMC9786172 (Molecules, 2022)

Tests used:
[1] = Stability of analytes in rat plasma samples (method validation)
Protocol: QC samples were prepared using the same process as that used for the calibration standards.
Plasma samples (100 µL) were mixed with 300 µL of 5% formic acid (in water) and vortexed for 5 min. Then, 500 µL acetonitrile of containing 20 ng/mL IS was added to the resultant mixture and vortexed for 5 min. After centrifugation at 14,500× g for 10 min at 4 °C, 800 µL of the supernatant was collected, dried under vacuum using a SpeedVac (Eyela, Tokyo, Japan), reconstituted with 50 μL of methanol, and injected into the LC-MS/MS system.
Using the calibration standard and QC samples, the present LC-MS/MS method was validated in terms of its selectivity, LLOQ, linearity, accuracy, precision, recovery, and stability according to the United States Food and Drug Administration guidelines for bioanalytical method validation [20].
Stability was determined under various analytical handling and storage conditions, such as bench-top, freeze–thaw, post-preparative, and long-term storage, at two QC levels (LQC and HQC).

in vivo = assay: in vivo; design: species or system Sprague-Dawley rat; conditions: rat
Protocol: Chromatographic analysis was performed on a Shimadzu Nexera LC-30AD UPLC system, and mass spectrometric detection was performed on an LCMS-8050 triple quadrupole mass spectrometer (Shimadzu Co., Kyoto, Japan) in the positive ESI and MRM mode. […] The gradient elution of the mobile phase consisting of 0.1% formic acid in water (solvent A) and 0.1% formic acid in acetonitrile (solvent B) was performed at a flow rate of 0.3 mL/min as follows (solvent A:solvent B, v/v): maintained at 19.3 for 0.01 min; ramped from 19.3 to 39.6 for 2.49 min; maintained at 39.6 for 0.01 min; ramped from 39.6 to 90 for 2.99 min; reverted to 19.3 for 0.01 min; and maintained for 1.99 min (total run time: 7.5 min). The ion source parameters were set as follows: nebulizing gas flow, 3 L/min; drying gas flow, 10 L/min; heating gas flow, 10 L/min; interface temperature, 300 °C; desolvation temperature, 250 °C; and heating block temperature, 400 °C. […] Rats underwent surgical implantation of a cannula in the femoral artery under anesthesia, as previously described. The LOC was dissolved in phosphate-buffered saline (pH 5.7). […] A blood sample of approximately 0.3 mL was collected via femoral artery cannulation at various time points (0, 1, 3, 5, 10, 20, 30, 60, 90, 120, 180, 240, 360, 480, and 600 min), then collected in heparin pre-treated microcentrifuge tubes. These blood samples were centrifuged at 4000× g for 10 min to obtain plasma and were frozen at −20 °C until analysis. Non-compartmental analysis was performed using Phoenix WinNonlin ver. 3.1 (Certara USA Inc., Princeton, NJ, USA) to estimate the following pharmacokinetic parameters: AUClast; total area under the plasma concentration versus time curve from time zero to time infinity (AUCinf); Cmax; Tmax; t1/2; and MRTinf. Values were obtained directly from the concentration–time plot. All values are reported as the mean ± standard deviation.

[2] = in vivo; cited from earlier work

SMILES | Autosampler stability (percentage of drug remaining), LQC ([1]; rat plasma samples, post-preparative, 3 ng/mL, 10 °C for 24 h in the autosampler, LC-MS/MS, mean ± SD, n = 5) [%] | Autosampler stability (percentage of drug remaining), HQC ([1]; rat plasma samples, post-preparative, 800 ng/mL, 10 °C for 24 h in the autosampler, LC-MS/MS, mean ± SD, n = 5) [%] | Bench-top stability (percentage of drug remaining), LQC ([1]; rat plasma, 3 ng/mL, room temperature for 3 h, LC-MS/MS, mean ± SD, n = 5) [%] | Freeze-thaw stability (percentage of drug remaining), LQC ([1]; rat plasma, 3 ng/mL, three freezing and thawing cycles every 12 h at −20 °C, LC-MS/MS, mean ± SD, n = 5) [%] | Long-term stability (percentage of drug remaining), LQC ([1]; rat plasma, 3 ng/mL, −20 °C for 30 d, LC-MS/MS, mean ± SD, n = 5) [%] | Bench-top stability (percentage of drug remaining), HQC ([1]; rat plasma, 800 ng/mL, room temperature for 3 h, LC-MS/MS, mean ± SD, n = 5) [%] | Freeze-thaw stability (percentage of drug remaining), HQC ([1]; rat plasma, 800 ng/mL, three freezing and thawing cycles every 12 h at −20 °C, LC-MS/MS, mean ± SD, n = 5) [%] | Long-term stability (percentage of drug remaining), HQC ([1]; rat plasma, 800 ng/mL, −20 °C for 30 d, LC-MS/MS, mean ± SD, n = 5) [%] | Recovery values after exposure to different stability conditions ([1]; rat plasma, 3 and 800 ng/mL, range over bench-top, autosampler, freeze-thaw and long-term conditions) | Tmax (in vivo; male, Sprague-Dawley, sc) [min] | half-life (in vivo; male, Sprague-Dawley, sc) [min] | level at 1 h (in vivo; male, Sprague-Dawley, sc, 0.122 mg/kg) [ng/mL] | MRTinf in the intravenous group [2] [min] | Calculated plasma concentration at 60 min after subcutaneous administration of LOC (in vivo) [ng/mL]
CCCCCCCC/C=C\CCCCCCCC(=O)OC[C@H](NC(=O)[C@H](Cc1c[nH]c2ccccc12)NC(=O)[C@H](Cc1c[nH]cn1)NC(=O)[C@@H]1CCC(=O)N1)C(=O)N[C@@H](Cc1ccc(O)cc1)C(=O)N[C@H](CC(C)C)C(=O)N[C@@H](CC(C)C)C(=O)N[C@@H](CCCNC(=N)N)C(=O)N1CCC[C@H]1C(=O)NCC [LOC] | 102 ± 9 | 92.7 ±1.2 | 105 ± 7 | 107 ± 4 | 91.2 ± 4.0 | 97.7± 2.0 | 107 ± 4 | 93.4 ± 2.6 | 91.2–107% | 300 | 172 ± 66 | 11.7 |  | 
CCNC(=O)[C@@H]1CCCN1C(=O)[C@H](CCCNC(=N)N)NC(=O)[C@H](CC(C)C)NC(=O)[C@@H](CC(C)C)NC(=O)[C@H](Cc1ccc(O)cc1)NC(=O)[C@H](CO)NC(=O)[C@H](Cc1c[nH]c2ccccc12)NC(=O)[C@H](Cc1c[nH]cn1)NC(=O)[C@@H]1CCC(=O)N1 [Leuprolide, pyroGlu-His-Trp-Ser-Tyr-D-Leu-Leu-Arg-Pro-NHEt, reference compound] |  |  |  |  |  |  |  |  |  | 15 | 38.2 ± 4.3 |  | 28.1 | 1.86
